# From the RNAGym collection of RNA variant scans (doi:10.7554/elife.80360)
# B1: Hairpin Ribozyme (parent)
# chain: GUCCUCUUUCACGUGCGCGUGAAAGAGAGAAGUGAACCAGAGAAACACACGUUGUGGUAUAUUACCUGGUA
# Variants of: B1
# Assay: self-cleavage, relative activity (ratio to wild type); higher = more cleavage; co-transcriptional
row,Variant,self-cleavage
1,GUCCUCUUUCACGUGCGCGUGAAAGAGAGAAGUGAACCAGACAAACACACGUUGUGGUGUAUUACCUGGUA [G42C A59G],0.195
2,GUCCUCUUUCACGUGCGCGUGAAAGAGAGAAGUGAACCAGACAAACACACGUUGUGGUAUGUUACCUGGUA [G42C A61G],0.178
3,GUCCUCUUUCACGUGCGCGUGAAAGAGAGAAGUGAACCAGACAAACACACGUUGUGGUAUUUUACCUGGUA [G42C A61U],0.136
4,GUCCUCUUUCACGUGCGCGUGAAAGAGAGAAGUGAACCAGACAAAAACACGUUGUGGUAUAUUACCUGGUA [G42C C46A],0.166
5,GUCCUCUUUCACGUGCGCGUGAAAGAGAGAAGUGAACCAGACAAACAAACGUUGUGGUAUAUUACCUGGUA [G42C C48A],0.134
6,GUCCUCUUUCACGUGCGCGUGAAAGAGAGAAGUGAACCAGACAAACACACCUUGUGGUAUAUUACCUGGUA [G42C G51C],0.227
7,GUCCUCUUUCACGUGCGCGUGAAAGAGAGAAGUGAACCAGACAAACACACGUUAUGGUAUAUUACCUGGUA [G42C G54A],0.159
8,GUCCUCUUUCACGUGCGCGUGAAAGAGAGAAGUGAACCAGACAAACACACGUUUUGGUAUAUUACCUGGUA [G42C G54U],0.17
9,GUCCUCUUUCACGUGCGCGUGAAAGAGAGAAGUGAACCAGACAAACACACGUUGUAGUAUAUUACCUGGUA [G42C G56A],0.155
10,GUCCUCUUUCACGUGCGCGUGAAAGAGAGAAGUGAACCAGACAAACACACGUUGUGGUAUAUUACCUAGUA [G42C G68A],0.119
11,GUCCUCUUUCACGUGCGCGUGAAAGAGAGAAGUGAACCAGACAAACACACGUUGUGGUAUAUUACCUCGUA [G42C G68C],0.151
12,GUCCUCUUUCACGUGCGCGUGAAAGAGAGAAGUGAACCAGACAAACACACGUUGUGGUAUAUUACCUUGUA [G42C G68U],0.138
13,GUCCUCUUUCACGUGCGCGUGAAAGAGAGAAGUGAACCAGACAAACACACGGUGUGGUAUAUUACCUGGUA [G42C U52G],0.237
14,GUCCUCUUUCACGUGCGCGUGAAAGAGAGAAGUGAACCAGACAAACACACGUAGUGGUAUAUUACCUGGUA [G42C U53A],0.332
15,GUCCUCUUUCACGUGCGCGUGAAAGAGAGAAGUGAACCAGACAAACACACGUUGAGGUAUAUUACCUGGUA [G42C U55A],0.169
16,GUCCUCUUUCACGUGCGCGUGAAAGAGAGAAGUGAACCAGACAAACACACGUUGCGGUAUAUUACCUGGUA [G42C U55C],0.158
17,GUCCUCUUUCACGUGCGCGUGAAAGAGAGAAGUGAACCAGACAAACACACGUUGGGGUAUAUUACCUGGUA [G42C U55G],0.173
18,GUCCUCUUUCACGUGCGCGUGAAAGAGAGAAGUGAACCAGACAAACACACGUUGUGGAAUAUUACCUGGUA [G42C U58A],0.218
19,GUCCUCUUUCACGUGCGCGUGAAAGAGAGAAGUGAACCAGACAAACACACGUUGUGGUAUAUCACCUGGUA [G42C U63C],0.148

row,Variant,self-cleavage
1,GUCCUCUUUCACGUGCGCGUGAAAGAGAGAAGUGAACCAGACAAACACACGUUGUGGUAUAUUACCUGGAA [G42C U70A],0.222
2,GUCCUCUUUCACGUGCGCGUGAAAGAGAGAAGUGAACCAGACAAACACACGUUGUGGUAUAUUACCUGGCA [G42C U70C],0.233
3,GUCCUCUUUCACGUGCGCGUGAAAGAGAGAAGUGAACCAGAUACACACACGUUGUGGUAUAUUACCUGGUA [G42U A44C],0.188
4,GUCCUCUUUCACGUGCGCGUGAAAGAGAGAAGUGAACCAGAUAUACACACGUUGUGGUAUAUUACCUGGUA [G42U A44U],0.19
5,GUCCUCUUUCACGUGCGCGUGAAAGAGAGAAGUGAACCAGAUAAACACCCGUUGUGGUAUAUUACCUGGUA [G42U A49C],0.173
6,GUCCUCUUUCACGUGCGCGUGAAAGAGAGAAGUGAACCAGAUAAACACACGUUGUGGUCUAUUACCUGGUA [G42U A59C],0.118
7,GUCCUCUUUCACGUGCGCGUGAAAGAGAGAAGUGAACCAGAUAAACACACGUUGUGGUGUAUUACCUGGUA [G42U A59G],0.172
8,GUCCUCUUUCACGUGCGCGUGAAAGAGAGAAGUGAACCAGAUAAACACACGUUGUGGUUUAUUACCUGGUA [G42U A59U],0.151
9,GUCCUCUUUCACGUGCGCGUGAAAGAGAGAAGUGAACCAGAUAAACACACGUUGUGGUAUCUUACCUGGUA [G42U A61C],0.193
10,GUCCUCUUUCACGUGCGCGUGAAAGAGAGAAGUGAACCAGAUAAACACACGUUGUGGUAUAUUACCUGGUC [G42U A71C],0.6
11,GUCCUCUUUCACGUGCGCGUGAAAGAGAGAAGUGAACCAGAUAAAAACACGUUGUGGUAUAUUACCUGGUA [G42U C46A],0.201
12,GUCCUCUUUCACGUGCGCGUGAAAGAGAGAAGUGAACCAGAUAAACAUACGUUGUGGUAUAUUACCUGGUA [G42U C48U],0.132
13,GUCCUCUUUCACGUGCGCGUGAAAGAGAGAAGUGAACCAGAUAAACACAUGUUGUGGUAUAUUACCUGGUA [G42U C50U],0.197
14,GUCCUCUUUCACGUGCGCGUGAAAGAGAGAAGUGAACCAGAUAAACACACGUUGUGGUAUAUUAUCUGGUA [G42U C65U],0.12
15,GUCCUCUUUCACGUGCGCGUGAAAGAGAGAAGUGAACCAGAUAAACACACCUUGUGGUAUAUUACCUGGUA [G42U G51C],0.392
16,GUCCUCUUUCACGUGCGCGUGAAAGAGAGAAGUGAACCAGAUAAACACACGUAGUGGUAUAUUACCUGGUA [G42U U53A],0.298
17,GUCCUCUUUCACGUGCGCGUGAAAGAGAGAAGUGAACCAGAUAAACACACGUCGUGGUAUAUUACCUGGUA [G42U U53C],0.233
18,GUCCUCUUUCACGUGCGCGUGAAAGAGAGAAGUGAACCAGAUAAACACACGUUGUGGCAUAUUACCUGGUA [G42U U58C],0.259
19,GUCCUCUUUCACGUGCGCGUGAAAGAGAGAAGUGAACCAGAUAAACACACGUUGUGGGAUAUUACCUGGUA [G42U U58G],0.192
